B1: CK6-SET0207 (CK6 with Fc modifications D265C H435A) (antibody, V domains shown)
VH: QVQLVQSGAAVKKPGESLKISCKGSGYRFTSYWIGWVRQMPGKGLEWMGIIYPGDSDTRYSPSFQGQVTISAGKSISTAYLQWSSLKASDTAMYYCARHGRGYNGYEGAFDIWGQGTMVTVSS
VL: AIQLTQSPSSLSASVGDRVTITCRASQGISSALAWYQQKPGKAPKLLIYDASSLESGVPSRFSGSGSGTDFTLTISSLQPEDFATYYCQQFNSYPLTFGGGTKVEIK
B2: CK6-PBD (anti-CD117 antibody CK6 with Fc modification S239C conjugated to PBD) (antibody, DAR 1.7, V domains shown)
VH: QVQLVQSGAAVKKPGESLKISCKGSGYRFTSYWIGWVRQMPGKGLEWMGIIYPGDSDTRYSPSFQGQVTISAGKSISTAYLQWSSLKASDTAMYYCARHGRGYNGYEGAFDIWGQGTMVTVSS
VL: AIQLTQSPSSLSASVGDRVTITCRASQGISSALAWYQQKPGKAPKLLIYDASSLESGVPSRFSGSGSGTDFTLTISSLQPEDFATYYCQQFNSYPLTFGGGTKVEIK
B3: CK6-DM (anti-CD117 antibody CK6 with Fc modification S239C conjugated to duocarmycin) (antibody, DAR 1.65, V domains shown)
VH: QVQLVQSGAAVKKPGESLKISCKGSGYRFTSYWIGWVRQMPGKGLEWMGIIYPGDSDTRYSPSFQGQVTISAGKSISTAYLQWSSLKASDTAMYYCARHGRGYNGYEGAFDIWGQGTMVTVSS
VL: AIQLTQSPSSLSASVGDRVTITCRASQGISSALAWYQQKPGKAPKLLIYDASSLESGVPSRFSGSGSGTDFTLTISSLQPEDFATYYCQQFNSYPLTFGGGTKVEIK
B4: CK6-D4 (anti-CD117 antibody CK6 with Fc modification S239C conjugated to calicheamicin) (antibody, DAR 1.72, V domains shown)
VH: QVQLVQSGAAVKKPGESLKISCKGSGYRFTSYWIGWVRQMPGKGLEWMGIIYPGDSDTRYSPSFQGQVTISAGKSISTAYLQWSSLKASDTAMYYCARHGRGYNGYEGAFDIWGQGTMVTVSS
VL: AIQLTQSPSSLSASVGDRVTITCRASQGISSALAWYQQKPGKAPKLLIYDASSLESGVPSRFSGSGSGTDFTLTISSLQPEDFATYYCQQFNSYPLTFGGGTKVEIK
B5: CK6-PNU (anti-CD117 antibody CK6 with Fc modification S239C conjugated to PNU) (antibody, DAR 1.4, V domains shown)
VH: QVQLVQSGAAVKKPGESLKISCKGSGYRFTSYWIGWVRQMPGKGLEWMGIIYPGDSDTRYSPSFQGQVTISAGKSISTAYLQWSSLKASDTAMYYCARHGRGYNGYEGAFDIWGQGTMVTVSS
VL: AIQLTQSPSSLSASVGDRVTITCRASQGISSALAWYQQKPGKAPKLLIYDASSLESGVPSRFSGSGSGTDFTLTISSLQPEDFATYYCQQFNSYPLTFGGGTKVEIK

The assay has as its target CD117 on Kasumi-1 cells, P10721. As to the kind of experiment: cell-based or functional assay.
On to B1, for which the % Efficacy (in vitro Kasumi cell killing assay, CellTiter-Glo) came out at 0%. B2 registered a % Efficacy (in vitro Kasumi cell killing assay, CellTiter-Glo) of 60.7%. B3 gave a % Efficacy (in vitro Kasumi cell killing assay, CellTiter-Glo) of 0%. The molecule B4 had a % Efficacy (in vitro Kasumi cell killing assay, CellTiter-Glo) of 0%. Take B5: the % Efficacy (in vitro Kasumi cell killing assay, CellTiter-Glo) is 85.7%.

(Values after patent publication US20220226493A1.)
